Source: US9278119B2, “Treatment of prostate cancer and a method for determining the prognosis for prostate cancer patients” (WNTRESEARCH AB, priority 2011, dated 2016)
Where no end group is shown, it is not given here. The star is where a group is joined. For = O=C*

Assays:
[1] = test system: DU145 cells; assay: Matrigel invasion assay, DU145 cells; type: cell-based, human; details: 24 h
Method: (§1) Four human PCa cell lines LNCaP, 22Rv1, PC-3, and DU145 were purchased from American Type Culture Collection [ATCC] (Manassas, Va.). The immortalized PNT2 normal human prostate epithelial cells (cat No. 95012613) were obtained from European Collection of Cell Cultures (ECACC), (Sigma-Aldrich, St. Louis, Mo.). LNCaP, 22Rv1, DU145 and PNT2 cells lines were cultured in RPMI-1640 medium, supplemented with 10% fetal bovine serum (FBS) and 1% pest (penicillin and streptomycin). PC-3 cells were grown in Hyclone Ham's F12 medium supplemented with 10% FBS and 1% pest. All in vitro experiments were performed when cells were ˜70% confluent. For invasion assay experiments cells were grown in serum free medium (SFM) for 24 hours. RPMI-1640 medium (R0883), FBS (F6178), penicillin streptomycin (P0781) were purchased from Sigma-Aldrich, whereas Ham's F12 medium (SH30026.01) was obtained from Thermo-Scientific (Waltham, Mass.). All cell lines were regularly tested for the absence of mycoplasma infection.
(§2) Cell invasion capacities were measured in a standard commercial invasion assay. In this study the inventors used BD BioCoat™ Matrigel™ Invasion Chambers (BD Biosciences, Bedford, Mass.) in accordance with the manufacturer's protocol. […] Invaded cells were counted either in an 460 inverted microscope or in Olympus BX51 Fluorescence Microscope (Olympus optical Co. Ltd, Japan).

[2] = test system: 22Rv1 cells; assay: Matrigel invasion assay, 22Rv1 cells; type: cell-based, human; details: 24 h
Method: as §1, §2

[3] = test system: LNCaP cells; assay: Matrigel invasion assay, LNCaP cells; type: cell-based, human; details: rWnt5a 0.4 μg/ml, 24 h, vs vehicle; FIG. 3B
Method: as §1, §2

[4] = test system: PC3 cells; assay: Matrigel invasion assay, PC3 cells; type: cell-based, human; details: rWnt5a 0.4 μg/ml, 24 h, vs vehicle; FIG. 3B
Method: as §1, §2

[5] = test system: PC3 cells; details: addition of rWnt5a to PC3 cells; report by Wang et al [26]; cited from earlier work

| Molecule | relative invasion ([1]; Foxy-5 100 microM, FIG. 6B) | relative invasion ([2]; Foxy-5 100 microM, FIG. 6A) | relative invasion ([1]; rWnt5a 0.4 μg/ml, vs vehicle, p<0.0001, FIG. 3B) | relative invasion [3] | relative invasion [4] | relative invasion ([2]; rWnt5a 0.4 μg/ml, vs vehicle, p=0.0001, FIG. 3B) | response in migration wound scratch assay [5] |
| --- | --- | --- | --- | --- | --- | --- | --- |
| formylated derivative of MDGCEL (SEQ. ID. NO. 2) (For-MDGCEL; listed as Homo sapiens) [Foxy-5, the N-formylated hexapeptide Foxy5, Wnt5a derived peptide] | significantly inhibited the invasion | significantly inhibited the invasion |  |  |  |  |  |
| rWnt5a: recombinant Wnt5a protein (rWnt5a, R&D Systems, Minneapolis, Minn.) (protein, UniProt P41221 62-380, looked up) Protein Wnt-5a: IIGAQPLCSQLAGLSQGQKKLCHLYQDHMQYIGEGAKTGIKECQYQFRHRRWNCSTVDNTSVFGRVMQIGSRETAFTYAVSAAGVVNAMSRACREGELSTCGCSRAARPKDLPRDWLWGGCGDNIDYGYRFAKEFVDARERERIHAKGSYESARILMNLHNNEAGRRTVYNLADVACKCHGVSGSCSLKTCWLQLADFRKVGDALKEKYDSAAAMRLNSRGKLVQVNSRFNSPTTQDLVYIDPSPDYCVRNESTGSLGTQGRLCNKTSEGMDGCELMCCGRGYDQFKTVQTERCHCKFHWCCYVKCKKCTEIVDQFVCK |  |  | decreased the invasive behavior | Neither the LNCaP nor the PC3 cells did respond | Neither the LNCaP nor the PC3 cells did respond | decreased the invasive behavior | did not respond |
